Substrate in series [1]: CC1(C)S[C@@H]2[C@H](NC(=O)Cc3ccccc3)C(=O)N2[C@H]1C(=O)O
Description: (§1) Ratio of Kcat to Km of Klebsiella pneumoniae SHV1 assessed as drug hydrolysis by spectrophotometry.

Substrate in series [2]: CO/N=C(\C(=O)N[C@@H]1C(=O)N2C(C(=O)[O-])=C(C[N+]3(C)CCCC3)CS[C@H]12)c1csc(N)n1
The description is as §1.

Substrate in series [3]: O=C(Cc1cccs1)N[C@@H]1C(=O)N2C(C(=O)[O-])=C(C[n+]3ccccc3)CS[C@H]12
The description is as §1.

Substrate in series [4]: Nc1nc(/C(=N/O)C(=O)N[C@@H]2C(=O)N3C(C(=O)O)=C(/C=C4\CCN([C@@H]5CCNC5)C4=O)CS[C@H]23)ns1
The series is described as §1.

Substrate in series [5]: CC1(C)S[C@@H]2[C@H](NC(=O)Cc3ccccc3)C(=O)N2[C@H]1C(=O)O
Description: (§2) Activity of Klebsiella pneumoniae SHV1 assessed as drug hydrolysis by spectrophotometry.

Substrate in series [6]: CO/N=C(\C(=O)N[C@@H]1C(=O)N2C(C(=O)[O-])=C(C[N+]3(C)CCCC3)CS[C@H]12)c1csc(N)n1
The series is described as §2.

Substrate in series [7]: O=C(Cc1cccs1)N[C@@H]1C(=O)N2C(C(=O)[O-])=C(C[n+]3ccccc3)CS[C@H]12
The series is described as §2.

Substrate in series [8]: Nc1nc(/C(=N/O)C(=O)N[C@@H]2C(=O)N3C(C(=O)O)=C(/C=C4\CCN([C@@H]5CCNC5)C4=O)CS[C@H]23)ns1
The description is as §2.

Substrate in series [9]: CC1(C)S[C@@H]2[C@H](NC(=O)Cc3ccccc3)C(=O)N2[C@H]1C(=O)O
The series can be described thus: (§3) Ratio of Kcat to Km of Escherichia coli TEM1 assessed as drug hydrolysis by spectrophotometry.

Substrate in series [10]: CC(C)(O/N=C(\C(=O)N[C@@H]1C(=O)N2C(C(=O)[O-])=C(C[n+]3ccccc3)CS[C@H]12)c1csc(N)n1)C(=O)O
Described as §3.

Substrate in series [11]: Nc1nc(/C(=N/O)C(=O)N[C@@H]2C(=O)N3C(C(=O)O)=C(/C=C4\CCN([C@@H]5CCNC5)C4=O)CS[C@H]23)ns1
The series is described as §3.

Substrate in series [12]: CC1(C)S[C@@H]2[C@H](NC(=O)Cc3ccccc3)C(=O)N2[C@H]1C(=O)O
The series can be described thus: (§4) Activity of Escherichia coli TEM1 assessed as drug hydrolysis by spectrophotometry.

Substrate in series [13]: CC(C)(O/N=C(\C(=O)N[C@@H]1C(=O)N2C(C(=O)[O-])=C(C[n+]3ccccc3)CS[C@H]12)c1csc(N)n1)C(=O)O
The series is described as §4.

Substrate in series [14]: O=C(Cc1cccs1)N[C@@H]1C(=O)N2C(C(=O)[O-])=C(C[n+]3ccccc3)CS[C@H]12
Described as §4.

Substrate in series [15]: Nc1nc(/C(=N/O)C(=O)N[C@@H]2C(=O)N3C(C(=O)O)=C(/C=C4\CCN([C@@H]5CCNC5)C4=O)CS[C@H]23)ns1
The description is as §4.

Substrate in series [16]: CC1(C)S[C@@H]2[C@H](NC(=O)Cc3ccccc3)C(=O)N2[C@H]1C(=O)O
The series can be described thus: (§5) Ratio of Kcat to Km of Serratia marcescens AmpC assessed as drug hydrolysis by spectrophotometry.

Substrate in series [17]: CO/N=C(\C(=O)N[C@@H]1C(=O)N2C(C(=O)[O-])=C(C[N+]3(C)CCCC3)CS[C@H]12)c1csc(N)n1
Described as §5.

Substrate in series [18]: O=C(Cc1cccs1)N[C@@H]1C(=O)N2C(C(=O)O)=C(/C=C/c3ccc([N+](=O)[O-])cc3[N+](=O)[O-])CS[C@H]12
The series is described as §5.

Substrate in series [19]: CC(C)(O/N=C(\C(=O)N[C@@H]1C(=O)N2C(C(=O)[O-])=C(C[n+]3ccccc3)CS[C@H]12)c1csc(N)n1)C(=O)O
Described as §5.

Substrate in series [20]: O=C(Cc1cccs1)N[C@@H]1C(=O)N2C(C(=O)[O-])=C(C[n+]3ccccc3)CS[C@H]12
Described as §5.

Substrate in series [21]: Nc1nc(/C(=N/O)C(=O)N[C@@H]2C(=O)N3C(C(=O)O)=C(/C=C4\CCN([C@@H]5CCNC5)C4=O)CS[C@H]23)ns1
The series is described as §5.

Substrate in series [22]: CC1(C)S[C@@H]2[C@H](NC(=O)Cc3ccccc3)C(=O)N2[C@H]1C(=O)O
The series can be described thus: (§6) Activity of Serratia marcescens AmpC assessed as drug hydrolysis by spectrophotometry.

Substrate in series [23]: CO/N=C(\C(=O)N[C@@H]1C(=O)N2C(C(=O)[O-])=C(C[N+]3(C)CCCC3)CS[C@H]12)c1csc(N)n1
The series is described as §6.

Substrate in series [24]: O=C(Cc1cccs1)N[C@@H]1C(=O)N2C(C(=O)O)=C(/C=C/c3ccc([N+](=O)[O-])cc3[N+](=O)[O-])CS[C@H]12
The series is described as §6.

Substrate in series [25]: CC(C)(O/N=C(\C(=O)N[C@@H]1C(=O)N2C(C(=O)[O-])=C(C[n+]3ccccc3)CS[C@H]12)c1csc(N)n1)C(=O)O
The series is described as §6.

Substrate in series [26]: O=C(Cc1cccs1)N[C@@H]1C(=O)N2C(C(=O)[O-])=C(C[n+]3ccccc3)CS[C@H]12
The series is described as §6.

Substrate in series [27]: Nc1nc(/C(=N/O)C(=O)N[C@@H]2C(=O)N3C(C(=O)O)=C(/C=C4\CCN([C@@H]5CCNC5)C4=O)CS[C@H]23)ns1
The description is as §6.

B1: Beta-lactamase SHV-1 (Klebsiella pneumoniae), P0AD64 (protein)
chain: MRYIRLCIISLLATLPLAVHASPQPLEQIKLSESQLSGRVGMIEMDLASGRTLTAWRADERFPMMSTFKVVLCGAVLARVDAGDEQLERKIHYRQQDLVDYSPVSEKHLADGMTVGELCAAAITMSDNSAANLLLATVGGPAGLTAFLRQIGDNVTRLDRWETELNEALPGDARDTTTPASMAATLRKLLTSQRLSARSQRQLLQWMVDDRVAGPLIRSVLPAGWFIADKTGAGERGARGIVALLGPNNKAERIVVIYLRDTPASMAERNQQIAGIGAALIEHWQR
As to B1, the specificity constant (kcat/Km) – broadly, the turnover number divided by the Michaelis constant – in [1] was 8.1e+07 M⁻¹ s⁻¹; in [2], 25000 M⁻¹ s⁻¹; in series [3], 3.1e+06 M⁻¹ s⁻¹; in [4], 230000 M⁻¹ s⁻¹. The Km – broadly, the concentration of substrate that gives half-maximal velocity – is 16 µM in series [5], 81 µM in series [6], 160 µM in series [7] and 130 µM in series [8]. Besides, the kcat (as a rule, the number of substrate molecules converted per active site and unit of time at saturation) stood at 1300 s⁻¹ in series [5], 2.1 s⁻¹ in [6], 500 s⁻¹ in [7] and 30 s⁻¹ in series [8].

B2: Beta-lactamase TEM (Escherichia coli), P62593 (protein)
chain: MSIQHFRVALIPFFAAFCLPVFAHPETLVKVKDAEDQLGARVGYIELDLNSGKILESFRPEERFPMMSTFKVLLCGAVLSRVDAGQEQLGRRIHYSQNDLVEYSPVTEKHLTDGMTVRELCSAAITMSDNTAANLLLTTIGGPKELTAFLHNMGDHVTRLDRWEPELNEAIPNDERDTTMPAAMATTLRKLLTGELLTLASRQQLIDWMEADKVAGPLLRSALPAGWFIADKSGAGERGSRGIIAALGPDGKPSRIVVIYTTGSQATMDERNRQIAEIGASLIKHW
For B2, the catalytic efficiency (kcat/Km) in series [9] turned out to be 1e+08 M⁻¹ s⁻¹; in series [10] it was 12 M⁻¹ s⁻¹; in [11] it was 29000 M⁻¹ s⁻¹. In addition, the Michaelis constant (Km) in series [12] is 12 µM; in series [13] it was 200 µM; in [14] it was 560 µM; in series [15], 300 µM. In addition, the kcat in series [12] was determined as 1200 s⁻¹; in series [13] it was 0.0023 s⁻¹; in series [14], 980 s⁻¹; in series [15], 8.8 s⁻¹.

B3: Beta-lactamase (Serratia marcescens), P18539 (protein)
chain: MTKMNRCAALIAALILPTAHAAQQQDIDAVIQPLMKKYGVPGMAIAVSVDGKQQIYPYGVASKQTGKPITEQTLFEVGSLSKTFTATLAVYAQQQSKLSFKDPASHYLPDVRGSAFDGVSLLNLATHTSGLPLFVPDDVTNNAQLMAYYRAWQPKHPAGSYRVYSNLGIGMLGMIAAKSLDQPFIQAMEQGMLPALGMSHTYVQVPAAQMANYAQGYSKDDKPVRVNPGPLDAESYGIKSNARDLIRYLDANLQQVKVASVARRWPRRTSVITSAGAFTQDLMWENYPYPVKLSRLIEGNNAGMIMNGTPATAITPPQPELRAGWYNKTGSTGGFSTYAVFIPAKNIAVEMLANKWFPNDDRVEAAYHIIQALEKR
In the case of B3, the kcat/Km in [16] was 9e+06 M⁻¹ s⁻¹; in series [17] it was less than 690 M⁻¹ s⁻¹; in [18], 6e+07 M⁻¹ s⁻¹; in series [19] it was less than 88 M⁻¹ s⁻¹; in [20], 3.1e+06 M⁻¹ s⁻¹; in [21], less than 8400 M⁻¹ s⁻¹. Besides, the Km is 2.1 µM in [22]; greater than 800 µM in series [23]; 14 µM in series [24]; 570 µM in series [25]; 680 µM in series [26]; 320 µM in series [27]. Further, the turnover number (kcat) in series [22] is 19 s⁻¹; in series [23], less than 0.55 s⁻¹; in [24], 840 s⁻¹; in [25], less than 0.05 s⁻¹; in series [26], 2000 s⁻¹; in series [27], less than 2.7 s⁻¹.

The record behind these values is ChEMBL document CHEMBL1143427, “Interactions of ceftobiprole with beta-lactamases from molecular classes A to D” (Antimicrob Agents Chemother, 2007).
